In PMC4357505:

Tests used:
β-arrestin1 = β-arrestin1 (UniProt P49407); assay: GST pull-down from cell lysate; details: reference: YFP-GCN2 wild type; sites T899
β-arrestin2 = β-arrestin2 (UniProt P32121); assay: GST pull-down from cell lysate; details: reference: YFP-GCN2 wild type; sites T899

## GCN2 1-1649 (from UniProt Q9P2K8) YFP-GCN2 T899A
β-arrestin1
  binding against the reference: stronger
β-arrestin2
  binding against the reference: stronger
